The supplement of paper PMC11780869

Test system: Bacillus subtilis
Assay: cleaved RNA product abundance (RNA/gDNA barcode ratio) relative to median wild-type variant (ratio to wild type); higher = more accumulation of the downstream cleavage product
Conditions: cleavage site: cggR-gapA (positions -7 to +36 mutated)
Summary of the method: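 The B. subtilis chromosome carried reporter mRNAs, truncated aprE or tetM, containing barcoded RNase Y cleavage-site windows mutagenized using oligos with a 9% error rate. After growth in LB at 37°C from OD600 0.0003 to 0.3, cleaved RNA was gel-selected, reverse transcribed and barcode-sequenced next to genomic DNA barcodes, with UMI collapsing. Each construct's RNA:gDNA barcode ratio was scaled to the median construct with the unmutated site. That scaled ratio is reported as cleaved product abundance.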

[1] = experiment (reporter, strain, medium): exp 4a: truncated aprE reporter, strain BJT201 with 2% xylose (RNase J1 expressed)
[2] = experiment (reporter, strain, medium): exp 2b: truncated aprE reporter, strain BJT200
[3] = experiment (reporter, strain, medium): exp 6: tetM reporter, strain 168

ACAGACGAAGGAGCCGCAAAGAAGTTATTAAGGGATTAATAATCCCTCAACATAAATATCTCTCACTTATTTAAA
cleaved RNA product abundance [1]: 0.444

ACAGACGAAGGAGCCGCAAAGAAGTTATTAAGGGATTAATAATCCCTCAAGATAAATATCTCTCACTTATTTAAA
cleaved RNA product abundance [2]: 0.203 | cleaved RNA product abundance [1]: 0.254

ACAGACGAAGGAGCCGCAAAGAAGTTATTAAGGGATTAATAATCCCTCAATATAAACATCTCTCACTTATTTAAA
cleaved RNA product abundance [1]: 0.803

ACAGACGAAGGAGCCGCAAAGAAGTTATTAAGGGATTAATAATCCCTCAATATAAAGATCTCTCACTTATTTAAA
cleaved RNA product abundance [2]: 0.486 | cleaved RNA product abundance [1]: 0.818

ACAGACGAAGGAGCCGCAAAGAAGTTATTAAGGGATTAATAATCCCTCAATATAAATAACTCTCACTTATTTAAA
cleaved RNA product abundance [2]: 1.02 | cleaved RNA product abundance [1]: 0.594

ACAGACGAAGGAGCCGCAAAGAAGTTATTAAGGGATTAATAATCCCTCAATATAAATATATCTCACTTATTTAAA
cleaved RNA product abundance [1]: 1.23

ACAGACGAAGGAGCCGCAAAGAAGTTATTAAGGGATTAATAATCCCTCAATATAAATATCTCTCACTTATTTAAA
cleaved RNA product abundance [2]: 0.996 | cleaved RNA product abundance [1]: 0.958 | cleaved RNA product abundance [3]: 1.09

ACAGACGAAGGAGCCGCAAAGAAGTTATTAAGGGATTAATAATCCCTCAATATAAATCTCTCTCACTTATTTAAA
cleaved RNA product abundance [1]: 0.637

ACAGACGAAGGAGCCGCAAAGAAGTTATTAAGGGATTAATAATCCCTCAATATAAATGTCTCTCACTTATTTAAA
cleaved RNA product abundance [1]: 0.707

ACAGACGAAGGAGCCGCAAAGAAGTTATTAAGGGATTAATAATCCCTCAATATAAATTTCTCTCACTTATTTAAA
cleaved RNA product abundance [2]: 0.686 | cleaved RNA product abundance [1]: 0.57

ACAGACGAAGGAGCCGCAAAGAAGTTATTAAGGGATTAATAATCCCTCAATATAATTATCTCTCACTTATTTAAA
cleaved RNA product abundance [1]: 0.43

ACAGACGAAGGAGCCGCAAAGAAGTTATTAAGGGATTAATAATCCCTCAATATACATATCTCTCACTTATTTAAA
cleaved RNA product abundance [1]: 0.799

ACAGACGAAGGAGCCGCAAAGAAGTTATTAAGGGATTAATAATCCCTCAATATATATATCTCTCACTTATTTAAA
cleaved RNA product abundance [1]: 0.957

ACAGACGAAGGAGCCGCAAAGAAGTTATTAAGGGATTAATAATCCCTCAATATCAATATCTCTCACTTATTTAAA
cleaved RNA product abundance [1]: 0.0629

ACAGACGAAGGAGCCGCAAAGAAGTTATTAAGGGATTAATAATCCCTCAATCTAAATATCTCTCACTTATTTAAA
cleaved RNA product abundance [2]: 0.164

ACAGACGAAGGAGCCGCAAAGAAGTTATTAAGGGATTAATAATCCCTCAATGTAAATATCTCTCACTTATTTAAA
cleaved RNA product abundance [1]: 0.108

ACAGACGAAGGAGCCGCAAAGAAGTTATTAAGGGATTAATAATCCCTCAATTTAAATATCTCTCACTTATTTAAA
cleaved RNA product abundance [1]: 0.176

ACAGACGAAGGAGCCGCAAAGAAGTTATTAAGGGATTAATAATCCCTCACTATAAATATCTCTCACTTATTTAAA
cleaved RNA product abundance [2]: 0.233 | cleaved RNA product abundance [1]: 0.26

ACAGACGAAGGAGCCGCAAAGAAGTTATTAAGGGATTAATAATCCCTCAGTATAAATATCTCTCACTTATTTAAA
cleaved RNA product abundance [1]: 0.224

ACAGACGAAGGAGCCGCAAAGAAGTTATTAAGGGATTAATAATCCCTCATTATAAATATCTCTCACTTATTTAAA
cleaved RNA product abundance [2]: 0.247 | cleaved RNA product abundance [1]: 0.534

ACAGACGAAGGAGCCGCAAAGAAGTTATTAAGGGATTAATAATCCCTCCATATAAATATCTCTCACTTATTTAAA
cleaved RNA product abundance [1]: 0.197

ACAGACGAAGGAGCCGCAAAGAAGTTATTAAGGGATTAATAATCCCTCGATATAAATATCTCTCACTTATTTAAA
cleaved RNA product abundance [1]: 0.594

ACAGACGAAGGAGCCGCAAAGAAGTTATTAAGGGATTAATAATCCCTCTATATAAATATCTCTCACTTATTTAAA
cleaved RNA product abundance [1]: 0.547

ACAGACGAAGGAGCCGCAAAGAAGTTATTAAGGGATTAATAATCCCTGAATATAAATATCTCTCACTTATTTAAA
cleaved RNA product abundance [1]: 0.768

ACAGACGAAGGAGCCGCAAAGAAGTTATTAAGGGATTAATAATCCCTTAATATAAATATCTCTCACTTATTTAAA
cleaved RNA product abundance [1]: 0.563

ACAGACGAAGGAGCCGCAAAGAAGTTATTAAGGGATTAATAATCCGTCAATATAAATATCTCTCACTTATTTAAA
cleaved RNA product abundance [1]: 0.165

ACAGACGAAGGAGCCGCAAAGAAGTTATTAAGGGATTAATAATCCTTCAATATAAATATCTCTCACTTATTTAAA
cleaved RNA product abundance [2]: 0.431 | cleaved RNA product abundance [1]: 0.39

ACAGACGAAGGAGCCGCAAAGAAGTTATTAAGGGATTAATAATCGCTCAATATAAATATCTCTCACTTATTTAAA
cleaved RNA product abundance [2]: 0.109 | cleaved RNA product abundance [1]: 0.0904

ACAGACGAAGGAGCCGCAAAGAAGTTATTAAGGGATTAATAATCTCTCAATATAAATATCTCTCACTTATTTAAA
cleaved RNA product abundance [2]: 0.716

ACAGACGAAGGAGCCGCAAAGAAGTTATTAAGGGATTAATAATGCCTCAATATAAATATCTCTCACTTATTTAAA
cleaved RNA product abundance [2]: 0.14 | cleaved RNA product abundance [1]: 0.125

ACAGACGAAGGAGCCGCAAAGAAGTTATTAAGGGATTAATAATTCCTCAATATAAATATCTCTCACTTATTTAAA
cleaved RNA product abundance [2]: 0.543 | cleaved RNA product abundance [1]: 0.569

ACAGACGAAGGAGCCGCAAAGAAGTTATTAAGGGATTAATATTCCCTCAATATAAATATCTCTCACTTATTTAAA
cleaved RNA product abundance [1]: 1.13

ACAGACGAAGGAGCCGCAAAGAAGTTATTAAGGGATTAATCATCCCTCAATATAAATATCTCTCACTTATTTAAA
cleaved RNA product abundance [1]: 1.2

ACAGACGAAGGAGCCGCAAAGAAGTTATTAAGGGATTATTAATCCCTCAATATAAATATCTCTCACTTATTTAAA
cleaved RNA product abundance [2]: 0.957 | cleaved RNA product abundance [1]: 1.09

ACAGACGAAGGAGCCGCAAAGAAGTTATTAAGGGATTGAATAATCCCTCAATATAAATATCTCTCACTTATTTAA
cleaved RNA product abundance [1]: 0.788

ACAGACGAAGGAGCCGCAAAGAAGTTATTAAGGGATTGATAATCCCTCAATATAAATATCTCTCACTTATTTAAA
cleaved RNA product abundance [1]: 0.889

ACAGACGAAGGAGCCGCAAAGAAGTTATTAAGGGATTTATAATCCCTCAATATAAATATCTCTCACTTATTTAAA
cleaved RNA product abundance [1]: 0.931

ACAGACGAAGGAGCCGCAAAGAAGTTATTAAGGGCAGAATAATCCCTCAATATAAATATCTCTCACTTATTTAAA
cleaved RNA product abundance [2]: 0.174

ACAGACGAAGGAGCCGCAAAGAAGTTATTAAGGGCTAAATAATCCCTCAATATAAATATCTCTCACTTATTTAAA
cleaved RNA product abundance [2]: 0.389 | cleaved RNA product abundance [1]: 0.368

ACAGACGAAGGAGCCGCAAAGAAGTTATTAAGGGCTGAAAAATCCCTCAATATAAATATCTCTCACTTATTTAAA
cleaved RNA product abundance [2]: 0.212

ACAGACGAAGGAGCCGCAAAGAAGTTATTAAGGGCTGAACAATCCCTCAATATAAATATCTCTCACTTATTTAAA
cleaved RNA product abundance [1]: 0.156

ACAGACGAAGGAGCCGCAAAGAAGTTATTAAGGGCTGAATAAACCCTCAATATAAATATCTCTCACTTATTTAAA
cleaved RNA product abundance [1]: 0.47

ACAGACGAAGGAGCCGCAAAGAAGTTATTAAGGGCTGAATAACCCCTCAATATAAATATCTCTCACTTATTTAAA
cleaved RNA product abundance [1]: 0.424

ACAGACGAAGGAGCCGCAAAGAAGTTATTAAGGGCTGAATAATCCATCAATATAAATATCTCTCACTTATTTAAA
cleaved RNA product abundance [2]: 0.084 | cleaved RNA product abundance [1]: 0.0979

ACAGACGAAGGAGCCGCAAAGAAGTTATTAAGGGCTGAATAATCCCACAATATAAATATCTCTCACTTATTTAAA
cleaved RNA product abundance [1]: 0.0873

ACAGACGAAGGAGCCGCAAAGAAGTTATTAAGGGCTGAATAATCCCCCAATATAAATATCTCTCACTTATTTAAA
cleaved RNA product abundance [1]: 0.157

ACAGACGAAGGAGCCGCAAAGAAGTTATTAAGGGCTGAATAATCCCTAAATATAAATATCTCTCACTTATTTAAA
cleaved RNA product abundance [1]: 0.537

ACAGACGAAGGAGCCGCAAAGAAGTTATTAAGGGCTGAATAATCCCTCAATATAAATAACTCTCACTTATTTAAA
cleaved RNA product abundance [1]: 0.729

ACAGACGAAGGAGCCGCAAAGAAGTTATTAAGGGCTGAATAATCCCTCAATATAAATATCTCTCACTTATTTAAA
cleaved RNA product abundance [2]: 0.587 | cleaved RNA product abundance [1]: 0.593 | cleaved RNA product abundance [3]: 0.473

ACAGACGAAGGAGCCGCAAAGAAGTTATTAAGGGCTGAATAATCCCTCAATATACATATCTCTCACTTATTTAAA
cleaved RNA product abundance [1]: 0.433

ACAGACGAAGGAGCCGCAAAGAAGTTATTAAGGGCTGAATAATCCCTCTATATAAATATCTCTCACTTATTTAAA
cleaved RNA product abundance [1]: 0.255

ACAGACGAAGGAGCCGCAAAGAAGTTATTAAGGGCTGAATAATCCCTTAATATAAATATCTCTCACTTATTTAAA
cleaved RNA product abundance [1]: 0.626

ACAGACGAAGGAGCCGCAAAGAAGTTATTAAGGGCTGAATAATTCCTCAATATAAATATCTCTCACTTATTTAAA
cleaved RNA product abundance [2]: 0.0668

ACAGACGAAGGAGCCGCAAAGAAGTTATTAAGGGCTGAATATTCCCTCAATATAAATATCTCTCACTTATTTAAA
cleaved RNA product abundance [2]: 0.228 | cleaved RNA product abundance [1]: 0.16
